Source: patent US11504441B2, “Radiolabeled compounds targeting the prostate-specific membrane antigen” (PROVINCIAL HEALTH SERVICES AUTHORITY, priority 2019, dated 2022)

Key:
[1] = tested on: PSMA-expressing LNCaP cancer xenografts; design: species or system mice; conditions: mouse, in vivo, iv
Protocol: Imaging and biodistribution experiments were performed using NODSCID 1 L2RγKO male mice. Mice were anesthetized by inhalation with 2% isoflurane in oxygen, and implanted subcutaneously with 1×10^7 LNCaP cells behind left shoulder. Mice were imaged or used in biodistribution studies when the tumor grew up to reach 5-8 mm in diameter during 5-6 weeks.
PET imaging experiments were conducted using Siemens Inveon micro PET/CT scanner. Each tumor bearing mouse was injected 6-8 MBq of Ga-68 labeled tracer through the tail vein under anesthesia (2% isoflurane in oxygen). The mice were allowed to recover and roam freely in their cage. After 50 min, the mice were sedated again with 2% isoflurane in oxygen inhalation and positioned in the scanner. […] Then, a 10-min static PET imaging was performed to determined uptake in tumor and other organs. […] The collected organs/tissues were weighed and counted using a Perkin Elmer (Waltham, Mass.) Wizard2 2480 gamma counter. The uptake in each organ/tissue was normalized to the injected dose using a standard curve, and expressed as the percentage of the injected dose per gram of tissue (% ID/g). […]
PET imaging experiments were conducted using Siemens Inveon micro PET/CT scanner. […] Then, a 10-min static PET imaging was performed to determined uptake in tumor and other organs.

[2] = in vivo; conditions: male, NODSCID 1L2RγKO, mouse, iv, total radioactivity
[3] = tested on: PSMA-expressing LNCaP cancer xenografts; conditions: mouse, in vivo

Question: With `O=C(O)CCC[C@H](NC(=O)N[C@@H](CCCCNC(=O)[C@H](Cc1c2ccccc2cc2ccccc12)NC(=O)[C@H]1CC[C@H](CNC(=O)CN2CCN(CC(=O)O)CCN(CC(=O)O)CCN(CC(=O)O)CC2)CC1)C(=O)O)C(=O)O` [68Ga-HTK03149, metal not drawn] as the compound, how does the “activity in other organs in PET images” value [1] read?
Answer: Its value is “very low activity in other organs”.

Question: And the tissue uptake at 1 h ([2]; Adrenal glands uptake)?
Answer: Its tissue uptake at 1 h is 0.46 ± 0.26 %ID/g.

Question: And the tissue uptake at 3 h ([2]; Adrenal glands uptake)?
Answer: The tissue uptake at 3 h was 0.46 ± 0.16 %ID/g.

Question: What about the tissue uptake at 1 h ([2]; Blood uptake) of the same compound?
Answer: The tissue uptake at 1 h was 0.96 ± 0.17 %ID/g.

Question: And the tissue uptake at 3 h ([2]; Blood uptake)?
Answer: The tissue uptake at 3 h was 0.35 ± 0.14 %ID/g.

Question: What about the tissue uptake at 1 h ([2]; Bone uptake) of the same compound?
Answer: Its tissue uptake at 1 h is 0.1 ± 0.03 %ID/g.

Question: What about the tissue uptake at 1 h ([2]; Brain uptake) of the same compound?
Answer: Its tissue uptake at 1 h is 0.02 ± 0.01 %ID/g.

Question: And the tissue uptake at 3 h ([2]; Brain uptake)?
Answer: Its tissue uptake at 3 h is 0.02 ± 0.01 %ID/g.

Question: And the tissue uptake at 1 h ([2]; Fat uptake)?
Answer: Its tissue uptake at 1 h is 0.22 ± 0.16 %ID/g.

Question: And the tissue uptake at 3 h ([2]; Fat uptake)?
Answer: Its tissue uptake at 3 h is 0.16 ± 0.09 %ID/g.

Question: And the tissue uptake at 1 h ([2]; Heart uptake)?
Answer: Its tissue uptake at 1 h is 0.29 ± 0.07 %ID/g.

Question: And the tissue uptake at 3 h ([2]; Heart uptake)?
Answer: Its tissue uptake at 3 h is 0.09 ± 0.02 %ID/g.

Question: What about the tissue uptake at 1 h ([2]; Intestine uptake) of the same compound?
Answer: The tissue uptake at 1 h was 0.3 ± 0.07 %ID/g.

Question: And the tissue uptake at 3 h ([2]; Intestine uptake)?
Answer: The tissue uptake at 3 h was 0.18 ± 0.04 %ID/g.

Question: And the tissue uptake at 1 h ([2]; Kidneys uptake)?
Answer: The tissue uptake at 1 h was 6.79 ± 4.91 %ID/g.

Question: What about the tissue uptake at 3 h ([2]; Kidneys uptake) of the same compound?
Answer: The tissue uptake at 3 h was 2.33 ± 1.02 %ID/g.

Question: And the tissue uptake at 1 h ([2]; Lacrimal uptake)?
Answer: The tissue uptake at 1 h was 0.1 ± 0.03 %ID/g.

Question: What about the tissue uptake at 3 h ([2]; Lacrimal uptake) of the same compound?
Answer: The tissue uptake at 3 h was 0.21 ± 0.2 %ID/g.

Question: And the tissue uptake at 1 h ([2]; Liver uptake)?
Answer: The tissue uptake at 1 h was 0.35 ± 0.17 %ID/g.

Question: What about the tissue uptake at 3 h ([2]; Liver uptake) of the same compound?
Answer: Its tissue uptake at 3 h is 0.13 ± 0.02 %ID/g.

Question: And the tissue uptake at 1 h ([2]; Lungs uptake)?
Answer: The tissue uptake at 1 h was 0.82 ± 0.37 %ID/g.

Question: What about the tissue uptake at 3 h ([2]; Lungs uptake) of the same compound?
Answer: The tissue uptake at 3 h was 0.22 ± 0.05 %ID/g.

Question: What about the tissue uptake at 1 h ([2]; Muscle uptake) of the same compound?
Answer: The tissue uptake at 1 h was 0.14 ± 0.04 %ID/g.

Question: And the tissue uptake at 3 h ([2]; Muscle uptake)?
Answer: The tissue uptake at 3 h was 0.05 ± 0.02 %ID/g.

Question: What about the tissue uptake at 1 h ([2]; Pancreas uptake) of the same compound?
Answer: Its tissue uptake at 1 h is 0.17 ± 0.03 %ID/g.

Question: And the tissue uptake at 3 h ([2]; Pancreas uptake)?
Answer: Its tissue uptake at 3 h is 0.06 ± 0.02 %ID/g.

Question: What about the tissue uptake at 1 h ([2]; Salivary uptake) of the same compound?
Answer: The tissue uptake at 1 h was 0.23 ± 0.05 %ID/g.

Question: And the tissue uptake at 3 h ([2]; Salivary uptake)?
Answer: Its tissue uptake at 3 h is 0.15 ± 0.13 %ID/g.

Question: And the tissue uptake at 1 h ([2]; Seminal uptake)?
Answer: The tissue uptake at 1 h was 6.46 ± 7.52 %ID/g.

Question: What about the tissue uptake at 3 h ([2]; Seminal uptake) of the same compound?
Answer: Its tissue uptake at 3 h is 1.19 ± 1.04 %ID/g.

Question: And the tissue uptake at 1 h ([2]; Spleen uptake)?
Answer: The tissue uptake at 1 h was 0.37 ± 0.12 %ID/g.

Question: And the tissue uptake at 3 h ([2]; Spleen uptake)?
Answer: The tissue uptake at 3 h was 0.24 ± 0.07 %ID/g.

Question: What about the tissue uptake at 1 h ([2]; Stomach uptake) of the same compound?
Answer: The tissue uptake at 1 h was 0.09 ± 0.04 %ID/g.

Question: And the tissue uptake at 3 h ([2]; Stomach uptake)?
Answer: The tissue uptake at 3 h was 0.03 ± 0.01 %ID/g.

Question: What about the tissue uptake at 1 h ([2]; Tail uptake) of the same compound?
Answer: The tissue uptake at 1 h was 0.86 ± 0.47 %ID/g.

Question: What about the tissue uptake at 3 h ([2]; Tail uptake) of the same compound?
Answer: The tissue uptake at 3 h was 0.13 ± 0.06 %ID/g.

Question: What about the tissue uptake at 1 h ([2]; Testes uptake) of the same compound?
Answer: Its tissue uptake at 1 h is 0.38 ± 0.16 %ID/g.

Question: And the tissue uptake at 3 h ([2]; Testes uptake)?
Answer: The tissue uptake at 3 h was 0.11 ± 0.03 %ID/g.

Question: What about the tissue uptake at 1 h ([2]; Thyroid uptake) of the same compound?
Answer: The tissue uptake at 1 h was 0.29 ± 0.08 %ID/g.

Question: And the tissue uptake at 3 h ([2]; Thyroid uptake)?
Answer: The tissue uptake at 3 h was 0.1 ± 0.04 %ID/g.

Question: What about the tissue uptake at 1 h ([2]; Tumor uptake) of the same compound?
Answer: Its tissue uptake at 1 h is 22.1 ± 13.9 %ID/g.

Question: And the tissue uptake at 3 h ([2]; Tumor uptake)?
Answer: Its tissue uptake at 3 h is 33.5 ± 10.7 %ID/g.

Question: What about the excreta dose per gram or mL at 1 h ([2]; Urine uptake) of the same compound?
Answer: The excreta dose per gram or mL at 1 h was 336 ± 127 %ID/g.

Question: What about the excreta dose per gram or mL at 3 h ([2]; Urine uptake) of the same compound?
Answer: The excreta dose per gram or mL at 3 h was 148 ± 102 %ID/g.

Question: And the Adrenal glands uptake ([3]; male, NODSCID 1L2RγKO, iv, 1 h)?
Answer: The Adrenal glands uptake was 0.33 ± 0.11 % ID/g.

Question: What about the Blood uptake ([3]; male, NODSCID 1L2RγKO, iv, 1 h) of the same compound?
Answer: Its Blood uptake is 0.70 ± 0.17 % ID/g.

Question: What about the Kidneys uptake ([3]; male, NODSCID 1L2RγKO, iv, 1 h) of the same compound?
Answer: Its Kidneys uptake is 4.15 ± 1.46 % ID/g.

Question: What about the Liver uptake ([3]; male, NODSCID 1L2RγKO, iv, 1 h) of the same compound?
Answer: The Liver uptake was 0.25 ± 0.06 % ID/g.

Question: And the Lungs uptake ([3]; male, NODSCID 1L2RγKO, iv, 1 h)?
Answer: Its Lungs uptake is 0.53 ± 0.09 % ID/g.

Question: What about the Seminal uptake ([3]; male, NODSCID 1L2RγKO, iv, 1 h) of the same compound?
Answer: Its Seminal uptake is 3.66 ± 5.36 % ID/g.

Question: And the Spleen uptake ([3]; male, NODSCID 1L2RγKO, iv, 1 h)?
Answer: The Spleen uptake was 0.27 ± 0.05 % ID/g.

Question: What about the Stomach uptake ([3]; male, NODSCID 1L2RγKO, iv, 1 h) of the same compound?
Answer: The Stomach uptake was 0.07 ± 0.01 % ID/g.

Question: And the Tail uptake ([3]; male, NODSCID 1L2RγKO, iv, 1 h)?
Answer: The Tail uptake was 0.58 ± 0.14 % ID/g.

Question: What about the Thyroid uptake ([3]; male, NODSCID 1L2RγKO, iv, 1 h) of the same compound?
Answer: The Thyroid uptake was 0.20 ± 0.05 % ID/g.

Question: And the Tumor uptake ([3]; male, NODSCID 1L2RγKO, iv, 1 h)?
Answer: Its Tumor uptake is 19.1 ± 6.37 % ID/g.

Question: And the Urine uptake ([3]; male, NODSCID 1L2RγKO, iv, 1 h)?
Answer: The Urine uptake was 319 ± 183 % ID/g.

Question: And the “Blood: Salivary ratio” value [3]?
Answer: Its value is 3.21 ± 0.64.

Question: Which tissue uptake at 1 h ([2]; Adrenal glands uptake) does the source give for `O=C(O)CN1CCN(CC(=O)O)CCN(CC(=O)NC[C@H]2CC[C@H](C(=O)N[C@@H](Cc3c4ccccc4cc4ccccc34)C(=O)NCCCC[C@H](NC(=O)N[C@@H](C[C@H](F)C(=O)O)C(=O)O)C(=O)O)CC2)CCN(CC(=O)O)CC1` [68Ga-HTK04040, metal not drawn] here?
Answer: Its tissue uptake at 1 h is 2.68 ± 0.7 %ID/g.

Question: What about the tissue uptake at 1 h ([2]; Blood uptake) of the same compound?
Answer: Its tissue uptake at 1 h is 0.94 ± 0.12 %ID/g.

Question: And the tissue uptake at 1 h ([2]; Bone uptake)?
Answer: Its tissue uptake at 1 h is 0.18 ± 0.03 %ID/g.

Question: And the tissue uptake at 1 h ([2]; Brain uptake)?
Answer: The tissue uptake at 1 h was 0.25 ± 0.43 %ID/g.

Question: And the tissue uptake at 1 h ([2]; Fat uptake)?
Answer: The tissue uptake at 1 h was 0.6 ± 0.3 %ID/g.

Question: What about the tissue uptake at 1 h ([2]; Heart uptake) of the same compound?
Answer: Its tissue uptake at 1 h is 0.88 ± 0.08 %ID/g.

Question: And the tissue uptake at 1 h ([2]; Intestine uptake)?
Answer: Its tissue uptake at 1 h is 0.53 ± 0.04 %ID/g.

Question: And the tissue uptake at 1 h ([2]; Kidneys uptake)?
Answer: The tissue uptake at 1 h was 76 ± 22.6 %ID/g.

Question: And the tissue uptake at 1 h ([2]; Lacrimal uptake)?
Answer: The tissue uptake at 1 h was 0.06 ± 0.02 %ID/g.

Question: And the tissue uptake at 1 h ([2]; Liver uptake)?
Answer: Its tissue uptake at 1 h is 0.94 ± 0.11 %ID/g.

Question: And the tissue uptake at 1 h ([2]; Lungs uptake)?
Answer: The tissue uptake at 1 h was 2.01 ± 0.21 %ID/g.

Question: What about the tissue uptake at 1 h ([2]; Muscle uptake) of the same compound?
Answer: The tissue uptake at 1 h was 0.64 ± 0.5 %ID/g.

Question: And the tissue uptake at 1 h ([2]; Pancreas uptake)?
Answer: The tissue uptake at 1 h was 0.61 ± 0.08 %ID/g.

Question: And the tissue uptake at 1 h ([2]; Salivary uptake)?
Answer: Its tissue uptake at 1 h is 1.29 ± 0.24 %ID/g.

Question: And the tissue uptake at 1 h ([2]; Seminal uptake)?
Answer: The tissue uptake at 1 h was 0.51 ± 0.12 %ID/g.

Question: What about the tissue uptake at 1 h ([2]; Spleen uptake) of the same compound?
Answer: The tissue uptake at 1 h was 2.58 ± 0.8 %ID/g.

Question: And the tissue uptake at 1 h ([2]; Stomach uptake)?
Answer: Its tissue uptake at 1 h is 0.23 ± 0.08 %ID/g.

Question: And the tissue uptake at 1 h ([2]; Tail uptake)?
Answer: The tissue uptake at 1 h was 0.85 ± 0.54 %ID/g.

Question: What about the tissue uptake at 1 h ([2]; Testes uptake) of the same compound?
Answer: Its tissue uptake at 1 h is 0.74 ± 0.04 %ID/g.

Question: And the tissue uptake at 1 h ([2]; Thyroid uptake)?
Answer: The tissue uptake at 1 h was 1.14 ± 0.14 %ID/g.

Question: And the tissue uptake at 1 h ([2]; Tumor uptake)?
Answer: The tissue uptake at 1 h was 18.8 ± 5.06 %ID/g.

Question: What about the excreta dose per gram or mL at 1 h ([2]; Urine uptake) of the same compound?
Answer: The excreta dose per gram or mL at 1 h was 325 ± 66.8 %ID/g.

Question: And the “Blood: Salivary ratio” value [3]?
Answer: The value was 0.73 ± 0.06.

Question: What about the “Tumor: Blood ratio” value [3] of the same compound?
Answer: The value was 20.4 ± 6.02.

Question: What about the “Tumor: Kidney ratio” value [3] of the same compound?
Answer: The value was 0.26 ± 0.08.

Question: What about the “Tumor: Muscle ratio” value [3] of the same compound?
Answer: The value was 43.2 ± 24.9.

Question: And the “Tumor: Salivary ratio” value [3]?
Answer: The value was 14.9 ± 4.40.
